Measured values taken from patent publication US20200199241A1 (Chugai, published 2020).
Numbering of substitutions follows the chain as printed. Names and notes keep the numbering of the source.

T1: human FcγRIIb (human, UniProt P31994 43-217, limits assumed)
T1 construct: also called FcgRIIb
T1 sequence: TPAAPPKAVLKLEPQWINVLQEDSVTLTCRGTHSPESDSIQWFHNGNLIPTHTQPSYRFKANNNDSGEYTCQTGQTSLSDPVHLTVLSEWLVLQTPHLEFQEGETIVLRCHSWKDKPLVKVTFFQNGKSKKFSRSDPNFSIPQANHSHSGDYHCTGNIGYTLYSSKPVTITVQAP

T2: human FcγRIIa(R) (human, UniProt P12318 36-217)
T2 construct: also called FcgRIIaR; FcγRIIa type R
T2 chain: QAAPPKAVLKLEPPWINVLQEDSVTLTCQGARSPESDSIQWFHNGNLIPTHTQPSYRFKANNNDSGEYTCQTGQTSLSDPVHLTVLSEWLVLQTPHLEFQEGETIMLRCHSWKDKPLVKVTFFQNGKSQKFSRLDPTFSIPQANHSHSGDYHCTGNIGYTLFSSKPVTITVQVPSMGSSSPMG

T3: human FcγRIIa(H) (human, UniProt P12318 36-217)
T3 construct: also called FcgRIIaH; FcγRIIa type H
T3 sequence: T2 chain with R133H

B1: GpH7-B3 variant D265N/GpL16-k0 (antibody, human IgG1)
heavy: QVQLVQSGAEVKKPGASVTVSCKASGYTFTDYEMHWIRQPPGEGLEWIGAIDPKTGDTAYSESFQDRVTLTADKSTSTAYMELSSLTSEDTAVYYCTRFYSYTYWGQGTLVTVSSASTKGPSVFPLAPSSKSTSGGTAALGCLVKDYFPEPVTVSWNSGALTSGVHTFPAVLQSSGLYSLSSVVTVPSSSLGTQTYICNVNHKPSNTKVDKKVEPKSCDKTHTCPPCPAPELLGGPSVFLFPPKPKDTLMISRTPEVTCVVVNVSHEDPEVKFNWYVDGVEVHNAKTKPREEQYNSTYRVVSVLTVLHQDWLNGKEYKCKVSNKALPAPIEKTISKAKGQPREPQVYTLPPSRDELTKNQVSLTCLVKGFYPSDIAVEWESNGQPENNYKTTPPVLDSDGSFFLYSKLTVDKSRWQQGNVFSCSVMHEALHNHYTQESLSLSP
light: DIVMTQSPLSLPVTPGEPASISCQASESLVHSNRNTYLHWYLQKPGQSPQLLIYKVSNRFSGVPDRFSGSGSGTDFTLKISRVEAEDVGVYYCSQNTHVPPTFGQGTKVEIE
notes: copies: 2 + 2
B2: GpH7-B3 variant E269R/GpL16-k0 (antibody, human IgG1)
heavy: not shown
light: B1 light
notes: copies: 2 + 2
B3: GpH7-B3 variant E269G/GpL16-k0 (antibody, human IgG1)
heavy: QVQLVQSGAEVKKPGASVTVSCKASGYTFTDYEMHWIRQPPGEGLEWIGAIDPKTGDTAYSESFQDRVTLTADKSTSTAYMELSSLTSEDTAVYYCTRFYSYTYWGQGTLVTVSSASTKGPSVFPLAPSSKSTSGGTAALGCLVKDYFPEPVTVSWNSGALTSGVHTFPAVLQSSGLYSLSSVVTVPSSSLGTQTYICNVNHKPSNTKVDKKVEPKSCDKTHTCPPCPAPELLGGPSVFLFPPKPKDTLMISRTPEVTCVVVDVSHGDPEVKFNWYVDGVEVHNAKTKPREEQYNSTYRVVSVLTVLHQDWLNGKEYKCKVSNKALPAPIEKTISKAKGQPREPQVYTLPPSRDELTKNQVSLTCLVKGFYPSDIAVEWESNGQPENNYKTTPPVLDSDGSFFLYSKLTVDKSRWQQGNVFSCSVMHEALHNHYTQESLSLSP
light: B1 light
notes: copies: 2 + 2
B4: GpH7-B3 variant D265V/GpL16-k0 (antibody, human IgG1)
heavy: not shown
light: B1 light
notes: copies: 2 + 2
B5: GpH7-B3 variant E269F/GpL16-k0 (antibody, human IgG1)
heavy: not shown
light: B1 light
notes: copies: 2 + 2
B6: GpH7-B3 variant D265Y/GpL16-k0 (antibody, human IgG1)
heavy: not shown
light: B1 light
notes: copies: 2 + 2
B7: GpH7-B3 variant D270G/GpL16-k0 (antibody, human IgG1)
heavy: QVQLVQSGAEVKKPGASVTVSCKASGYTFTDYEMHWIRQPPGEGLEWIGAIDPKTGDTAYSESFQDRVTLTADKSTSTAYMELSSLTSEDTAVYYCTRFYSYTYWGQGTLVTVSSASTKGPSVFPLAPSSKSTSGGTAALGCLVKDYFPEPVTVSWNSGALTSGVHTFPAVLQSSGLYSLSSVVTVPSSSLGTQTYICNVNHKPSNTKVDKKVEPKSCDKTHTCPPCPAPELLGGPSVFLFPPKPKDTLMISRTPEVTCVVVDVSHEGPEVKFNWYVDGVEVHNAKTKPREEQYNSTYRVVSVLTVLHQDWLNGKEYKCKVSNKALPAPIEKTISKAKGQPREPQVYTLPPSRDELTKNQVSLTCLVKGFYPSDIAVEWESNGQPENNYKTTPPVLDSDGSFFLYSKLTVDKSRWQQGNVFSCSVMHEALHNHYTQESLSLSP
light: B1 light
notes: copies: 2 + 2
B8: GpH7-B3 variant D270P/GpL16-k0 (antibody, human IgG1)
heavy: not shown
light: B1 light
notes: copies: 2 + 2
B9: GpH7-B3 variant E269T/GpL16-k0 (antibody, human IgG1)
heavy: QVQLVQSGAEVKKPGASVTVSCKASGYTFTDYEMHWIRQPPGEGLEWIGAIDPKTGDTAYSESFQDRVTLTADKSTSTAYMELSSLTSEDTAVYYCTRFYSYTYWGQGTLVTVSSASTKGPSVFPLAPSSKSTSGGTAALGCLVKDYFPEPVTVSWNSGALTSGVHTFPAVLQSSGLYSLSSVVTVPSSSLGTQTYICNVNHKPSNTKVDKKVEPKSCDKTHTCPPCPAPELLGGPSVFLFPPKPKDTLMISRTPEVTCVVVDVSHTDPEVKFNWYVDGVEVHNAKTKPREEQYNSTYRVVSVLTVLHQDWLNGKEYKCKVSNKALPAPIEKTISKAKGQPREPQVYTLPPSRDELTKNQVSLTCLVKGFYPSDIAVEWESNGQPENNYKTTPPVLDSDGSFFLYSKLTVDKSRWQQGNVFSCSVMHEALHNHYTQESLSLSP
light: B1 light
notes: copies: 2 + 2
B10: GpH7-B3 variant D270R/GpL16-k0 (antibody, human IgG1)
heavy: not shown
light: B1 light
notes: copies: 2 + 2
B11: GpH7-B3 variant E269N/GpL16-k0 (antibody, human IgG1)
heavy: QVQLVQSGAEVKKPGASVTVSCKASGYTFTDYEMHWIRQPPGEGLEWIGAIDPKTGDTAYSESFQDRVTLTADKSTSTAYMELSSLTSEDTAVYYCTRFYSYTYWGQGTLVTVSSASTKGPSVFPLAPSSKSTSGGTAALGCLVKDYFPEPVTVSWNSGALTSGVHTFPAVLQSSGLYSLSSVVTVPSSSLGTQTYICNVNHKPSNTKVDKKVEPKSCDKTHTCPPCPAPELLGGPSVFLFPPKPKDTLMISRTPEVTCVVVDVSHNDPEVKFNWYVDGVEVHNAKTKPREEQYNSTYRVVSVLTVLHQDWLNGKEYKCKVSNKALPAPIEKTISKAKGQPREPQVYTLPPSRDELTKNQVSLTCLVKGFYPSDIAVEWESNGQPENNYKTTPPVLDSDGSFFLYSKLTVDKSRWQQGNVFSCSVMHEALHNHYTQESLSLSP
light: B1 light
notes: copies: 2 + 2
B12: GpH7-B3 variant D270K/GpL16-k0 (antibody, human IgG1)
heavy: not shown
light: B1 light
notes: copies: 2 + 2
B13: GpH7-B3 variant D265W/GpL16-k0 (antibody, human IgG1)
heavy: not shown
light: B1 light
notes: copies: 2 + 2
B14: GpH7-B3 variant D265T/GpL16-k0 (antibody, human IgG1)
heavy: not shown
light: B1 light
notes: copies: 2 + 2
B15: GpH7-B3 variant E269M/GpL16-k0 (antibody, human IgG1)
heavy: not shown
light: B1 light
notes: copies: 2 + 2
B16: GpH7-B3 variant D265R/GpL16-k0 (antibody, human IgG1)
heavy: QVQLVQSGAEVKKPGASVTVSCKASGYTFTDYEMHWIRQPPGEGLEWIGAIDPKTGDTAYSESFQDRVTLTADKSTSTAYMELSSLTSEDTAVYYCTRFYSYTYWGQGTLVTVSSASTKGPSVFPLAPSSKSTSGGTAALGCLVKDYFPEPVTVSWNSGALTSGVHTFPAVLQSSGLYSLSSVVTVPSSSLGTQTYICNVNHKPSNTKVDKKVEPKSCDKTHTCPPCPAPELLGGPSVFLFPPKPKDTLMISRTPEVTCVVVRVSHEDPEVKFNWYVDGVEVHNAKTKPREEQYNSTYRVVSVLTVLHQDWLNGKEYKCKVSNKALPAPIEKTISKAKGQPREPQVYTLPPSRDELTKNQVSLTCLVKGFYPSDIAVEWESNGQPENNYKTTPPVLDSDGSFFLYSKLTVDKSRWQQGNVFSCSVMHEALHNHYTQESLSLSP
light: B1 light
notes: copies: 2 + 2
B17: GpH7-B3 variant D270W/GpL16-k0 (antibody, human IgG1)
heavy: not shown
light: B1 light
notes: copies: 2 + 2
B18: GpH7-B3 variant E269A/GpL16-k0 (antibody, human IgG1)
heavy: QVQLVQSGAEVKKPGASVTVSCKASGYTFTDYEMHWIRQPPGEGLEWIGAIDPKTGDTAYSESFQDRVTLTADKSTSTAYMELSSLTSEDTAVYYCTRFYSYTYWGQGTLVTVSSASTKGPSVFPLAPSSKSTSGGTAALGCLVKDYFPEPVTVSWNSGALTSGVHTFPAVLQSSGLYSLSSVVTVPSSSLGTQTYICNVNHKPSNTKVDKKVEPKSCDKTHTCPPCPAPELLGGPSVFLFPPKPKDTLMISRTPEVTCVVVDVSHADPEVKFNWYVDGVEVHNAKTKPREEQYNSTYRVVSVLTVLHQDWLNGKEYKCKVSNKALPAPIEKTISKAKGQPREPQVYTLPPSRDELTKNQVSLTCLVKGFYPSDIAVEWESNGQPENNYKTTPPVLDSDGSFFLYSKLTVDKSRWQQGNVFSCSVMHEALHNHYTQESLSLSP
light: B1 light
notes: copies: 2 + 2
B19: GpH7-B3 variant E269Q/GpL16-k0 (antibody, human IgG1)
heavy: not shown
light: B1 light
notes: copies: 2 + 2
B20: GpH7-B3 variant D265S/GpL16-k0 (antibody, human IgG1)
heavy: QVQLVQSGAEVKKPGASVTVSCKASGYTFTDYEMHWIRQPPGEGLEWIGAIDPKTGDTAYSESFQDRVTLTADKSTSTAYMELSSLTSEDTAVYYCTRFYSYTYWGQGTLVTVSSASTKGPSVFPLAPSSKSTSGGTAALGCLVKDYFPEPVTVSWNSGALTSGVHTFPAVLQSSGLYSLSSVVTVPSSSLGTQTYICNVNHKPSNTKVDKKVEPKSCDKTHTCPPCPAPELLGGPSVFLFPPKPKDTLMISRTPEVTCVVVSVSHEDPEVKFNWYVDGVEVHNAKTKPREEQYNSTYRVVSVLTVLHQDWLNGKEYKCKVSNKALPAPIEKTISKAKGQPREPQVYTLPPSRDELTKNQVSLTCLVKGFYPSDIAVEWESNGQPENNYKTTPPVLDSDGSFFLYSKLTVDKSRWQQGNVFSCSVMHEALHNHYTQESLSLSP
light: B1 light
notes: copies: 2 + 2
B21: GpH7-B3 variant D265Q/GpL16-k0 (antibody, human IgG1)
heavy: not shown
light: B1 light
notes: copies: 2 + 2
B22: GpH7-B3 variant E269L/GpL16-k0 (antibody, human IgG1)
heavy: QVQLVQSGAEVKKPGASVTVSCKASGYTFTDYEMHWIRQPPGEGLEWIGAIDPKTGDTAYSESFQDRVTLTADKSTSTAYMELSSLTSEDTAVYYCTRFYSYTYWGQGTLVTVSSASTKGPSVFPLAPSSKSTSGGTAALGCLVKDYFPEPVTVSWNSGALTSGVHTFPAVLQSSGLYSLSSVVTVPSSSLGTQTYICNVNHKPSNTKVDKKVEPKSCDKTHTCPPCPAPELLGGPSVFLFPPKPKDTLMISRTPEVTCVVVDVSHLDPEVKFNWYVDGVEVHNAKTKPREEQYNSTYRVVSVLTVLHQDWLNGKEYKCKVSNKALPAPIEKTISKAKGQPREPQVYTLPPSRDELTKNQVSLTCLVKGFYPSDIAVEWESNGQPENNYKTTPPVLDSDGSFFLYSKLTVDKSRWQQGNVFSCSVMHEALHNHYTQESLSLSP
light: B1 light
notes: copies: 2 + 2
B23: GpH7-B3 variant E269P/GpL16-k0 (antibody, human IgG1)
heavy: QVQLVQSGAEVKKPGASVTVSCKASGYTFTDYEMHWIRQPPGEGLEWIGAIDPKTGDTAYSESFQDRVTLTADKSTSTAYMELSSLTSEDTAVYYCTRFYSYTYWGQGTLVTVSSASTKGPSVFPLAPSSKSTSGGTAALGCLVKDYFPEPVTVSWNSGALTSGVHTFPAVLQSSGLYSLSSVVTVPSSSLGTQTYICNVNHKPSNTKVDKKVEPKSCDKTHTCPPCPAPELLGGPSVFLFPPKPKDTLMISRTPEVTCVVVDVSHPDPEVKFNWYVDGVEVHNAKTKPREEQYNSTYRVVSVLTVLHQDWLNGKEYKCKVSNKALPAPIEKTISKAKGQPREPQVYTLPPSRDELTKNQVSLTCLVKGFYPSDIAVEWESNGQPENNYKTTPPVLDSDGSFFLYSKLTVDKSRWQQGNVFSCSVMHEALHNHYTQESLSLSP
light: B1 light
notes: copies: 2 + 2

molecular target: T1, human FcγRIIb; assay: SPR (Biacore);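 note: antibody variants captured on sensor chip, Fcγ receptor flowed over at 25 °C, bound receptor normalized to amount of captured antibody, expressed relative to reference antibody set as 100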
Experimental: (§1) Interaction between each modified antibody and Fcγ receptor prepared in the manner described above was analyzed using the BIACORE™ T100 surface plasmon resonance system (GE Healthcare), BIACORE™ T200 surface plasmon resonance system (GE Healthcare), BIACORE™ A100 surface plasmon resonance system or BIACORE™ 4000 surface plasmon resonance system. HBS-EP+ (GE Healthcare) was used for the running buffer, and measurements were carried out at 25° C. The chips used were chips in which antigen peptides, Protein A (Thermo Scientific), Protein A/G (Thermo Scientific) or Protein L (ACTIGEN® protein (Alltech or BioVision) were immobilized on the Series S Sensor Chip CMS (GE Healthcare) or Series S Sensor Chip CM4 (GE Healthcare) by amine coupling, or chips in which preliminarily biotinylated antigen peptides were allowed to interact and then immobilized on the Series S Sensor Chip SA (certified) (GE Healthcare). The target antibodies were captured on these sensor chips, Fcγ receptor diluted with the running buffer was allowed to interact, followed by measurement of the amount of bound antibody. The amounts bound were compared between antibodies. However, since the amount of Fcγ receptor bound depends on the amount of captured antibody, the values used for comparison were first corrected by dividing the amount of Fcγ receptor bound by the captured amount of each antibody. Through reaction with 10 mM glycine-HCl at pH 1.5, the sensor chips were regenerated by washing off antibody captured on the sensor chips and used repeatedly.
(§2) Binding strength was evaluated according to the following method based on the results of analyzing the interaction with each FcγR. […] That value was then further multiplied by 100, and the resulting value was used as an indicator of relative binding activity to each FcγR.

Binder	relative binding activity
B1	-2 % of GpH7-B3/GpL16-k0
B2	0 % of GpH7-B3/GpL16-k0
B3	25 % of GpH7-B3/GpL16-k0
B4	-1 % of GpH7-B3/GpL16-k0
B5	13 % of GpH7-B3/GpL16-k0
B6	-2 % of GpH7-B3/GpL16-k0
B7	3 % of GpH7-B3/GpL16-k0
B8	-1 % of GpH7-B3/GpL16-k0
B9	19 % of GpH7-B3/GpL16-k0
B10	-5 % of GpH7-B3/GpL16-k0
B11	15 % of GpH7-B3/GpL16-k0
B12	-5 % of GpH7-B3/GpL16-k0
B13	-2 % of GpH7-B3/GpL16-k0
B14	1 % of GpH7-B3/GpL16-k0
B15	15 % of GpH7-B3/GpL16-k0
B16	-1 % of GpH7-B3/GpL16-k0
B17	2 % of GpH7-B3/GpL16-k0
B18	13 % of GpH7-B3/GpL16-k0
B19	13 % of GpH7-B3/GpL16-k0
B20	1 % of GpH7-B3/GpL16-k0
B21	4 % of GpH7-B3/GpL16-k0
B22	12 % of GpH7-B3/GpL16-k0
B23	26 % of GpH7-B3/GpL16-k0

Molecular target: T2, human FcγRIIa(R)
Assay: SPR (Biacore);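 note: antibody variants captured on sensor chip, Fcγ receptor flowed over at 25 °C, bound receptor normalized to amount of captured antibody, expressed relative to reference antibody set as 100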
Experimental: as §1, §2

Binder	relative binding activity
B1	-1 % of GpH7-B3/GpL16-k0
B2	2 % of GpH7-B3/GpL16-k0
B3	38 % of GpH7-B3/GpL16-k0
B4	-1 % of GpH7-B3/GpL16-k0
B5	19 % of GpH7-B3/GpL16-k0
B6	-1 % of GpH7-B3/GpL16-k0
B7	3 % of GpH7-B3/GpL16-k0
B8	-3 % of GpH7-B3/GpL16-k0
B9	35 % of GpH7-B3/GpL16-k0
B10	-5 % of GpH7-B3/GpL16-k0
B11	24 % of GpH7-B3/GpL16-k0
B12	-4 % of GpH7-B3/GpL16-k0
B13	-1 % of GpH7-B3/GpL16-k0
B14	2 % of GpH7-B3/GpL16-k0
B15	23 % of GpH7-B3/GpL16-k0
B16	-1 % of GpH7-B3/GpL16-k0
B17	-2 % of GpH7-B3/GpL16-k0
B18	20 % of GpH7-B3/GpL16-k0
B19	24 % of GpH7-B3/GpL16-k0
B20	0 % of GpH7-B3/GpL16-k0
B21	13 % of GpH7-B3/GpL16-k0
B22	20 % of GpH7-B3/GpL16-k0
B23	34 % of GpH7-B3/GpL16-k0

molecular target: T4, human FcγRIa (human, UniProt P12314 16-292, limits assumed); assay: SPR (Biacore);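 note: antibody variants captured on sensor chip, Fcγ receptor flowed over at 25 °C, bound receptor normalized to amount of captured antibody, expressed relative to reference antibody set as 100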
T4 construct: also called FcgRIa; FcγRI (CD64)
T4 sequence (P12314 16-292 limits assumed): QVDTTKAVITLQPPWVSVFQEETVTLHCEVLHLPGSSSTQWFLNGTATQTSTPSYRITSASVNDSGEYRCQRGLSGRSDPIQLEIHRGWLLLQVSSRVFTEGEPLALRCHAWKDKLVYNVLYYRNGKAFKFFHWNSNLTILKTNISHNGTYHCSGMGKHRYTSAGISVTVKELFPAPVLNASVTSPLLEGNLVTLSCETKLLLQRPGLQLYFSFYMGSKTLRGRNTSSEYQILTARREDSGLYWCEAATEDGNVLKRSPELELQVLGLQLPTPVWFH
Experimental: as §1, §2

Binder	relative binding activity
B1	3 % of GpH7-B3/GpL16-k0
B2	72 % of GpH7-B3/GpL16-k0
B3	94 % of GpH7-B3/GpL16-k0
B4	3 % of GpH7-B3/GpL16-k0
B5	99 % of GpH7-B3/GpL16-k0
B6	5 % of GpH7-B3/GpL16-k0
B7	82 % of GpH7-B3/GpL16-k0
B8	64 % of GpH7-B3/GpL16-k0
B9	93 % of GpH7-B3/GpL16-k0
B10	45 % of GpH7-B3/GpL16-k0
B11	90 % of GpH7-B3/GpL16-k0
B12	45 % of GpH7-B3/GpL16-k0
B13	3 % of GpH7-B3/GpL16-k0
B14	48 % of GpH7-B3/GpL16-k0
B15	98 % of GpH7-B3/GpL16-k0
B16	5 % of GpH7-B3/GpL16-k0
B17	74 % of GpH7-B3/GpL16-k0
B18	93 % of GpH7-B3/GpL16-k0
B19	96 % of GpH7-B3/GpL16-k0
B20	20 % of GpH7-B3/GpL16-k0
B21	67 % of GpH7-B3/GpL16-k0
B22	98 % of GpH7-B3/GpL16-k0
B23	93 % of GpH7-B3/GpL16-k0

molecular target: T3, human FcγRIIa(H); assay: SPR (Biacore);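 note: antibody variants captured on sensor chip, Fcγ receptor flowed over at 25 °C, bound receptor normalized to amount of captured antibody, expressed relative to reference antibody set as 100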
Experimental: as §1, §2

Binder	relative binding activity
B1	0 % of GpH7-B3/GpL16-k0
B2	13 % of GpH7-B3/GpL16-k0
B3	46 % of GpH7-B3/GpL16-k0
B4	0 % of GpH7-B3/GpL16-k0
B5	41 % of GpH7-B3/GpL16-k0
B6	0 % of GpH7-B3/GpL16-k0
B7	29 % of GpH7-B3/GpL16-k0
B8	0 % of GpH7-B3/GpL16-k0
B9	39 % of GpH7-B3/GpL16-k0
B10	11 % of GpH7-B3/GpL16-k0
B11	31 % of GpH7-B3/GpL16-k0
B12	16 % of GpH7-B3/GpL16-k0
B13	0 % of GpH7-B3/GpL16-k0
B14	5 % of GpH7-B3/GpL16-k0
B15	50 % of GpH7-B3/GpL16-k0
B16	0 % of GpH7-B3/GpL16-k0
B17	38 % of GpH7-B3/GpL16-k0
B18	51 % of GpH7-B3/GpL16-k0
B19	64 % of GpH7-B3/GpL16-k0
B20	2 % of GpH7-B3/GpL16-k0
B21	13 % of GpH7-B3/GpL16-k0
B22	40 % of GpH7-B3/GpL16-k0
B23	33 % of GpH7-B3/GpL16-k0

molecular target: T5, human FcγRIIIa(F) (human, UniProt P08637 17-208, limits assumed); assay: SPR (Biacore)
T5 construct: also called FcgRIIIaF; allotype F158
T5 sequence (P08637 other isoform, or with tags, fused parts or gaps limits assumed): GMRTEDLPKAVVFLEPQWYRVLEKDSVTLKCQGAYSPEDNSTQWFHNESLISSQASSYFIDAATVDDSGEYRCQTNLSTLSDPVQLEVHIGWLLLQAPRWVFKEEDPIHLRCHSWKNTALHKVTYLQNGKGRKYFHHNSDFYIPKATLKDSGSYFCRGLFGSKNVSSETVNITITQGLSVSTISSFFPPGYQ
Experimental: as §1, §2

Binder	relative binding activity
B1	-1 % of GpH7-B3/GpL16-k0
B2	7 % of GpH7-B3/GpL16-k0
B3	27 % of GpH7-B3/GpL16-k0
B4	-1 % of GpH7-B3/GpL16-k0
B5	10 % of GpH7-B3/GpL16-k0
B6	-1 % of GpH7-B3/GpL16-k0
B7	6 % of GpH7-B3/GpL16-k0
B8	-1 % of GpH7-B3/GpL16-k0
B9	26 % of GpH7-B3/GpL16-k0
B10	2 % of GpH7-B3/GpL16-k0
B11	21 % of GpH7-B3/GpL16-k0
B12	5 % of GpH7-B3/GpL16-k0
B13	-2 % of GpH7-B3/GpL16-k0
B14	-2 % of GpH7-B3/GpL16-k0
B15	20 % of GpH7-B3/GpL16-k0
B16	-1 % of GpH7-B3/GpL16-k0
B17	7 % of GpH7-B3/GpL16-k0
B18	28 % of GpH7-B3/GpL16-k0
B19	38 % of GpH7-B3/GpL16-k0
B20	-2 % of GpH7-B3/GpL16-k0
B21	-1 % of GpH7-B3/GpL16-k0
B22	10 % of GpH7-B3/GpL16-k0
B23	14 % of GpH7-B3/GpL16-k0
